In ChEMBL document CHEMBL2074010, “Transport function and hepatocellular localization of mrp6 in rat liver” (Mol Pharmacol, 2000):

Legend:
[1] = substrate: CC(C)C[C@@H]1NC(=O)[C@@H](C(C)C)NC(=O)[C@@H]2CCCN2C(=O)[C@@H](CC(=O)O)NC(=O)[C@@H](Cc2c[nH]c3ccccc23)NC1=O; test: TP_TRANSPORTER: uptake in membrane vesicle from Mrp6-expressing Sf9 cells; format: functional, cell membranes
[2] = substrate: CC(C)C[C@@H]1NC(=O)[C@@H](C(C)C)NC(=O)[C@@H]2CCCN2C(=O)[C@@H](CC(=O)O)NC(=O)[C@@H](Cc2c[nH]c3ccccc23)NC1=O; test: TP_TRANSPORTER: uptake in membrane vesicles from Mrp2-expressing Sf9 cells; format: functional, cell membranes, Membrane vesicle

B1: ATP-binding cassette sub-family C member 6 (Rattus norvegicus) (protein)
chain: MNGEHSMATPGESCAGLRVWNQTEQEPVAYHLLNLCFLRAAGSWVPPMYLWVLGPIYLLYIHRHGCCYLRMSRLFKIKMVLGFALILLYTFNAAVPLWRIHRGMPQAPELLIHPTVWLTTMSFATFLIHMERKKGVRASGLLFGYWLLCCLVPAIDTVQQASAGSFRQEPLHHLATYLCLSLVVAELVLSCLVDQPPFFSEDSKPLNPCPEAEASFPSKAMFWWASGLLWKGYRKLLGPKDLWSLERENSSEELVSQLEREWRRNFSELPGHKGHSGMGTPETEAFLQPERSQRGPLLRAIWRVFRSTFLLGTLSLVISDAFRFAVPKLLSLFLEFMGDLESSAWTGWLLAVLMFLSACLQTLFEQQYMYRVKVLQMRLRTAITGLVYRKVLVLSSGSRKSSAAGDVVNLVSVDVQRLVESILHLNGLWLLFLWIIVCFVYLWQLLGPSALTAVAVFLSLLPLNFFITKKRSFHQEEQMRQKASRARLTSSMLRTVRTIKSHGWECAFLERLLHIRGQELGALKTSAFLFSVSLVSFQVSTFLVALVVFAVHTLVAEDNAMDAEKAFVTLTVLSILNKAQAFLPFSVHCLVQARVSFDRLAAFLCLEEVDPNGMVLSPSRCSSKDRISIHNGTFAWSQESPPCLHGINLTVPQGCLLAVVGPVGAGKSSLLSALLGELLKVEGSVSIEGSVAYVPQEAWVQNTSVVENVCFRQELDLPWLQEVLEACALGSDVASFPAGVHTPVGEQGMNLSGGQKQRLSLARAVYRRAAVYLMDDPLAALDAHVSQEVFKQVIGPSGLLQGTTRILVTHTLHVLPQADQILVLANGTIAEMGSYQDLLHRNGALVGLLDGARQPAGEGEGEAHAAATSDDLGGFSGGGTPTRRPERPRPSDAAPVKGSTSEAQMEPSLDDVEVTGLTAGEDSVQYGRVKSATYLSYLRAVGTPLCTYTLFLFLCQQVASFCQGYWLSLWADDPVVDGKQMHSALRGSIFGLLGCLQAIGLFASMAAVFLGGARASCLLFRSLLWDVARSPIGFFERTPVGNLLNRFSKETDIVDVDIPDKMRTLLTYAFGLLEVGLAVSMATPLAIVAILPLMLLYAGFQSLYVATCCQLRRLESASYSSVCSHLAETFQGSQVVRAFQAQGPFTAQHDALMDENQRISFPRLVADRWLAANLELLGNGLVFVAATCAVLSKAHLSAGLAGFSVSAALQVTQTLQWVVRSWTDLENSMVAVERVQDYVHTPKEAPWRLPSSAAQPLWPCGGQIEFRDFGLRHRPELPMAVQGVSLKIHAGEKVGIVGRTGAGKSSLTWGLLRLQEATEGGIWIDGVPITDMGLHTLRSRITIIPQDPVLFPGSLRMNLDLLQENTDEGIWAALETVQLKAFVTSLPGQLQYECSGQGDDLSVGQKQLLCLARALLRKTQILILDEATASVDPGTEIQMQAALERWFAQCTVLLIAHRLRSVMNCARVLVMDEGQVAESGSPAQLLAQKGLFYRLAQESGLA
[1]
  Km: 17 µM

B2: ATP-binding cassette sub-family C member 2 (Rattus norvegicus) (protein)
chain: MDKFCNSTFWDLSLLESPEADLPLCFEQTVLVWIPLGFLWLLAPWQLYSVYRSRTKRSSITKFYLAKQVFVVFLLILAAIDLSLALTEDTGQATVPPVRYTNPILYLCTWLLVLAVQHSRQWCVRKNSWFLSLFWILSVLCGVFQFQTLIRALLKDSKSNMAYSYLFFVSYGFQIVLLILTAFSGPSDSTQTPSVTASFLSSITFSWYDRTVLKGYKHPLTLEDVWDIDEGFKTRSVTSKFEAAMTKDLQKARQAFQRRLQKSQRKPEATLHGLNKKQSQSQDVLVLEEAKKKSEKTTKDYPKSWLIKSLFKTFHVVILKSFILKLIHDLLVFLNPQLLKLLIGFVKSSNSYVWFGYICAILMFAVTLIQSFCLQSYFQHCFVLGMCVRTTVMSSIYKKALTLSNLARKQYTIGETVNLMSVDSQKLMDATNYMQLVWSSVIQITLSIFFLWRELGPSILAGVGVMVLLIPVNGVLATKIRNIQVQNMKNKDKRLKIMNEILSGIKILKYFAWEPSFQEQVQGIRKKELKNLLRFGQLQSLLIFILQITPILVSVVTFSVYVLVDSANVLNAEKAFTSITLFNILRFPLSMLPMVTSSILQASVSVDRLERYLGGDDLDTSAIRRVSNFDKAVKFSEASFTWDPDLEATIQDVNLDIKPGQLVAVVGTVGSGKSSLVSAMLGEMENVHGHITIQGSTAYVPQQSWIQNGTIKDNILFGSEYNEKKYQQVLKACALLPDLEILPGGDMAEIGEKGINLSGGQKQRVSLARAAYQDADIYILDDPLSAVDAHVGKHIFNKVVGPNGLLAGKTRIFVTHGIHFLPQVDEIVVLGKGTILEKGSYRDLLDKKGVFARNWKTFMKHSGPEGEATVNNDSEAEDDDDGLIPTMEEIPEDAASLAMRRENSLRRTLSRSSRSSSRRGKSLKNSLKIKNVNVLKEKEKEVEGQKLIKKEFVETGKVKFSIYLKYLQAVGWWSILFIILFYGLNNVAFIGSNLWLSAWTSDSDNLNGTNNSSSHRDMRIGVFGALGLAQGICLLISTLWSIYACRNASKALHGQLLTNILRAPMRFFDTTPTGRIVNRFSGDISTVDDLLPQTLRSWMMCFFGIAGTLVMICMATPVFAIIIIPLSILYISVQVFYVATSRQLRRLDSVTKSPIYSHFSETVTGLPIIRAFEHQQRFLAWNEKQIDINQKCVFSWITSNRWLAIRLELVGNLVVFCSALLLVIYRKTLTGDVVGFVLSNALNITQTLNWLVRMTSEAETNIVAVERISEYINVENEAPWVTDKRPPADWPRHGEIQFNNYQVRYRPELDLVLKGITCNIKSGEKVGVVGRTGAGKSSLTNCLFRILESAGGQIIIDGIDVASIGLHDLRERLTIIPQDPILFSGSLRMNLDPFNKYSDEEVWRALELAHLRSFVSGLQLGLLSEVTEGGDNLSIGQRQLLCLGRAVLRKSKILVLDEATAAVDLETDSLIQTTIRKEFSQCTVITIAHRLHTIMDSDKIMVLDNGKIVEYGSPEELLSNRGSFYLMAKEAGIENVNHTEL
[2]
  Km: 124 µM
